Reference: patent US20240124607A1 (Merck Sharp & Dohme, published 2024)
Changes are numbered by the printed parent chain. Each block holds one binder with its values, some of them ahead of it.

Tests used:
human CEACAM5 on cells [1] = target: T1, human CEACAM5 on cells (human, UniProt P06731 35-685); assay: flow cytometry, BxPC-3 cells
T1 construct: tumour cell lines with endogenous CEACAM5, or B16F10 engineered to express hCEACAM5; also called CEACAM5 on MKN-45, HPAF-II, SK-CO-1, LoVo, BxPC-3, Kato-III, LS-174T, ZR-75-30; hCEACAM5-B16F10
T1 sequence: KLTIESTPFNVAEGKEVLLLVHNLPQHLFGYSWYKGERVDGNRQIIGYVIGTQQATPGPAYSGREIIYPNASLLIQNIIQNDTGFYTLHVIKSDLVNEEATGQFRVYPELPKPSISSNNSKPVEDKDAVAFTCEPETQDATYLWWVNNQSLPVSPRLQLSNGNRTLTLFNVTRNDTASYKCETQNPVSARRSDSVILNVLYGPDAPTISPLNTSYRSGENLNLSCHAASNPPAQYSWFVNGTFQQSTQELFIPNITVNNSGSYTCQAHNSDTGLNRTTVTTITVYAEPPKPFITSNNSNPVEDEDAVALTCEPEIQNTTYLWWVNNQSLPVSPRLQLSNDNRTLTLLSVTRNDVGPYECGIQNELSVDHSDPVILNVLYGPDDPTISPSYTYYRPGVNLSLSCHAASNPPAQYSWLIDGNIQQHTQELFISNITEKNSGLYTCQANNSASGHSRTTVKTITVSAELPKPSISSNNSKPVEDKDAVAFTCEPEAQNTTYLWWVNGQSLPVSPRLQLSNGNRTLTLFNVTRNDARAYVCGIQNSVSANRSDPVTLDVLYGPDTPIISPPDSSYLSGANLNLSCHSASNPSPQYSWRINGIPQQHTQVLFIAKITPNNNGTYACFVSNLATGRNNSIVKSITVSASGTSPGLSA

human CEACAM5 on cells [2] = target: T1, human CEACAM5 on cells; assay: flow cytometry, SK-CO-1 cells
human CEACAM5 on cells [3] = target: T1, human CEACAM5 on cells; assay: flow cytometry, LoVo cells
human CEACAM5 on cells [4] = target: T1, human CEACAM5 on cells; assay: flow cytometry, Kato-III cells
human CEACAM5 on cells [5] = target: T1, human CEACAM5 on cells; assay: flow cytometry, MKN-45 cells
human CEACAM5 on cells [6] = target: T1, human CEACAM5 on cells; assay: flow cytometry, MKN-45 cells; MKN-45 cells
human NKG2D-Fc [7] = target: T2, human NKG2D-Fc (human, UniProt P26718 73-216); assay: ELISA on plate-adsorbed recombinant human NKG2D-Fc, anti-human kappa-HRP, OD 450 nm
T2 construct: extracellular domain; also called recombinant human NKG2D-Fc; NKG2D-Fc-biotin
T2 sequence (looked up): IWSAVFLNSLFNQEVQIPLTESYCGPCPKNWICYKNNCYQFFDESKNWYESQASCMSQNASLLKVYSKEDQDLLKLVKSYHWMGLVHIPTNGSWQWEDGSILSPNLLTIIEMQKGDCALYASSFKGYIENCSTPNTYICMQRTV
From the text: (§1) The nucleic acid sequences of human, mouse or cynomolgus NKG2D ectodomains were fused with nucleic acid sequences encoding human IgG1 Fc domains and introduced into mammalian cells to be expressed. After purification, NKG2D-Fc fusion proteins were adsorbed to wells of microplates. After blocking the wells with bovine serum albumin to prevent non-specific binding, NKG2D-binding domains were titrated and added to the wells pre-adsorbed with NKG2D-Fc fusion proteins. Primary antibody binding was detected using a secondary antibody which was conjugated to horseradish peroxidase and specifically recognizes a human kappa light chain to avoid Fc cross-reactivity. 3,3′,5,5′-Tetramethylbenzidine (TMB), a substrate for horseradish peroxidase, was added to the wells to visualize the binding signal, whose absorbance was measured at 450 nm and corrected at […]. An NKG2D-binding domain clone, an isotype control or a positive control (comprising heavy chain and light chain variable domains selected from the group consisting of: SEQ ID NOs: 526-529, or anti-mouse NKG2D clones MI-6 and CX-5 available at eBioscience) was added to each well.

human NKG2D-Fc [8] = target: T2, human NKG2D-Fc; assay: competition ELISA on plate-adsorbed human NKG2D-Fc; blocked ligand ULBP-6-His-biotin
Experimental: Recombinant human NKG2D-Fc proteins were adsorbed to wells of a microplate, and the wells were blocked with bovine serum albumin to reduce non-specific binding. A saturating concentration of ULBP-6-His-biotin was added to the wells, followed by addition of the NKG2D-binding domain clones. After a 2-hour incubation, wells were washed and ULBP-6-His-biotin that remained bound to the NKG2D-Fc coated wells was detected by streptavidin-conjugated to horseradish peroxidase and TMB substrate. Absorbance was measured at 450 nm and corrected at […]. After subtracting background, specific binding of NKG2D-binding domains to the NKG2D-Fc proteins was calculated from the percentage of ULBP-6-His-biotin that was blocked from binding to the NKG2D-Fc proteins in wells.

cynomolgus NKG2D-Fc = target: T3, cynomolgus NKG2D-Fc (cynomolgus monkey, UniProt P61252 73-216); assay: ELISA on plate-adsorbed recombinant cynomolgus NKG2D-Fc, anti-human kappa-HRP, OD 450 nm
T3 construct: extracellular domain
T3 sequence (looked up): T2 sequence (looked up) with D43N, T133I
From the text: as §1

human NKG2D-Fc [9] = target: T2, human NKG2D-Fc; assay: competition ELISA: human NKG2D-Fc-biotin binding to plate-adsorbed MICA-Fc is blocked
Experimental: Recombinant human MICA-Fc proteins were adsorbed to wells of a microplate, and the wells were blocked with bovine serum albumin to reduce non-specific binding. NKG2D-Fc-biotin was added to wells followed by NKG2D-binding domains. After incubation and washing, NKG2D-Fc-biotin that remained bound to MICA-Fc coated wells was detected using streptavidin-HRP and TMB substrate. Absorbance was measured at 450 nm and corrected at […]. After subtracting background, specific binding of NKG2D-binding domains to the NKG2D-Fc proteins was calculated from the percentage of NKG2D-Fc-biotin that was blocked from binding to the MICA-Fc coated wells.

mouse NKG2D-Fc [10] = target: T4, mouse NKG2D-Fc (mouse, UniProt O54709 90-232); assay: competition ELISA: mouse NKG2D-Fc-biotin binding to plate-adsorbed Rae-1delta-Fc is blocked
T4 construct: extracellular domain; also called Mouse NKG2D-Fc-biotin
T4 sequence (looked up): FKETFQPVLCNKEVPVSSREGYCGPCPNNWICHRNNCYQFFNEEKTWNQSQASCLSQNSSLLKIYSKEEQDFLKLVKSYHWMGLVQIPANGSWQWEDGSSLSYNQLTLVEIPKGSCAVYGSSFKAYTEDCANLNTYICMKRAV
Experimental: Recombinant mouse Rae-1delta-Fc (purchased from R&D Systems) was adsorbed to wells of a microplate, and the wells were blocked with bovine serum albumin to reduce non-specific binding. Mouse NKG2D-Fc-biotin was added to the wells followed by NKG2D-binding domains. After incubation and washing, NKG2D-Fc-biotin that remained bound to Rae-1delta-Fc coated wells was detected using streptavidin-HRP and TMB substrate. Absorbance was measured at 450 nm and corrected at […]. After subtracting background, specific binding of NKG2D-binding domains to the NKG2D-Fc proteins was calculated from the percentage of NKG2D-Fc-biotin that was blocked from binding to the Rae-1delta-Fc coated wells.

mouse NKG2D-Fc [11] = target: T4, mouse NKG2D-Fc; assay: ELISA on plate-adsorbed recombinant mouse NKG2D-Fc, anti-human kappa-HRP, OD 450 nm
From the text: as §1

- EC50 (human CEACAM5 on cells [1]): 4.28 nM
- Max FOB (human CEACAM5 on cells [1]): 19 fold over background
- EC50 (human CEACAM5 on cells [2]): 8.67 nM
- Max FOB (human CEACAM5 on cells [2]): 37 fold over background
- EC50 (human CEACAM5 on cells [3]): 3.25 nM
- Max FOB (human CEACAM5 on cells [3]): 19 fold over background
- EC50 (human CEACAM5 on cells [4]): 1.17 nM
- Max FOB (human CEACAM5 on cells [4]): 5 fold over background
- Max FOB (human CEACAM5 on cells [5]): 107 fold over background
- EC50 (human CEACAM5 on cells [6]): < 9.05 nM
B1: AB0509 (antibody, V domains shown)
VH: QVQLVQSGGGLVQPGGSLRLSCAASGFTFTSYAMSWVRQAPGKGLEWVSAISGTGDSTFYADSVKGRFTFSRDNSKNTLYLQMNSLRAEDTAVYYCAKDLGWLQYGLFDYWGQGTLVTVSS
VL: DIQLTQSPATLSVSPGERATLSCRASQSVSSSYLAWYQQKPGQAPRLLIYGASSRATGIPDRFSGSGSGTDFTLTISRLEPEDFAVYYCQQYNNWPLTFGGGTKVEIK
notes: the scFv entries carry the stabilising cysteines, which the mAb may lack; also called mAb corresponding to AB0411

- EC50 (read off the curve) (human NKG2D-Fc [7]): ~0.4 nM
- IC50 (read off the curve) (human NKG2D-Fc [8]): ~3 nM
- EC50 (read off the curve) (cynomolgus NKG2D-Fc): ~0.3 nM
- IC50 (read off the curve) (human NKG2D-Fc [9]): ~20 nM
- IC50 (read off the curve) (mouse NKG2D-Fc [10]): ~20 nM
- EC50 (read off the curve) (mouse NKG2D-Fc [11]): ~0.2 nM
B2: ADI-27743 (antibody, V domains shown)
VH: QVQLQQWGAGLLKPSETLSLTCAVYGGSFSGYYWSWIRQPPGKGLEWIGEIDHSGSTNYNPSLKSRVTISVDTSKNQFSLKLSSVTAADTAVYYCARARGPWSFDPWGQGTLVTVSS
VL: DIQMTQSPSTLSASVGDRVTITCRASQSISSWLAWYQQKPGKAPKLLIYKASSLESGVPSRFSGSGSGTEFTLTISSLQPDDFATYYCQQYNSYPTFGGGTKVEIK
notes: named as a single clone only on the drawing sheets
